{"source": "paper PMC7452893", "about": "(Nature Communications, 2020)", "binders": {"B1": {"name": "MD45 (antibody, V domains shown)", "VH": "EVQLVQSGGGLVQPGGSLRLSCAASGFTVSSNYMTWVRQAPGKGLEWVSVIYSGGSTFYADSVKGRFTISRHNSKNTLYLQMNSLRAEDTAVYYCARDLSVRGGMDVWGQGTMVTVSS", "VL": "EIVLTQSPGTLSLSPGERATLSCRASQSVNSSYLAWYQQKPGQAPRLLIYGASNRATGIPDRFSGSGSGTDFTLTISRLEPEDFAVYYCQQYGVSPEIIFGQGTRLEIK", "notes": "scFv-Fc format; also called MD45 scFv-Fc"}, "B2": {"name": "MD63 (antibody, V domains shown)", "VH": "QVTLKESGGGVVQPGRSLRLSCAASGFTFSSYAMHWVRQAPGKGLEHVSAISSDGGITYFADSVKGRFTISRDNSRNTLFLQMSSLRVEDTAVYYCVKDQDSNSWYDAFDIWGRGTMVTVSS", "VL": "not shown", "notes": "scFv-Fc format; also called MD63 scFv-Fc"}, "B3": {"name": "MD47 (antibody, V domains shown)", "V domain 1": "QMQLVQSGGGLVQPGGSLRLSCAASGFTFSSYAMSWVRQAPGKGLEWVSAISSGGSTYYADSVKGRFTISRDNSKNTLYLQMNSLRAEDTAVYYCAKDLVTAPSYEAFDIWGQGTMITVSS", "V domain 2": "NFMLTQPPSVSVAPGKTARITCGGNNIGSKSVHWYQQKPGQAPVLVIYYDSDRPSGIPERFSGSNSGNTATLTISRVEAGDEADYYCQVWDSSSHHHVVFGGGTKGTVL", "notes": "scFv-Fc format; also called MD47 scFv-Fc"}, "B4": {"name": "MD17 (antibody, V domains shown)", "VH": "EVQLLESGGGLVQPGGSLRLSCSASGFTFSTYVMNWVRQAPGKGLEHVSGISSDGGITYYADSVKGRFTISRDNSKNTLYLQMSSLRVEDTAVYYCVKDQDSSSWYDAFDIWGQGTMVTVSS", "VL": "DIVMTQSPSSLSASVGDRVTITCRASQSISNYLNWYQQKLGKAPKLLTYAASRLQSGVPSRFSASGSGTEFTLTISSLQPEDFATYYCQQSYTTPLTFGGGTKLEIK", "notes": "scFv-Fc format; also called MD17 scFv-Fc"}, "B5": {"name": "MD29 (antibody, V domains shown)", "VH": "B4 VH with E1Q, V2M, L5V, E6Q, L45P", "VL": "NIRLTQSPSSLSASVGDRVTITCRATQSISSYLNWYQQKPGKAPNLLIYAASSLQSGVPSRFSGSGSGTDFTLTISSLQPEDFATYYCHQTYTSPYTFGQGTKLEIK", "notes": "scFv-Fc format; also called MD29 scFv-Fc"}, "B6": {"name": "MD62 (antibody, V domains shown)", "VH": "EVQLVQSGGGLIQPGGSLRLSCAASGVTVSSNYMTWVRQAPGKGLEWVSLIYSGGSTYYADSVKGRFTISRDNSKNTLYLQMNSLRAEDTAVYYCARDLQYYGMDVWGQGTMVTVSS", "VL": "AIRMTQSPSSVSASVGDRVTITCRASQDIGSWLGWYQQKPGKAPKLLIYAASSLAGGVPSRFSGSGSGTDFTLTISSLQPEDFATYYCQQANSFPLTFGGGTKLEIK", "notes": "scFv-Fc format; also called MD62 scFv-Fc"}, "B7": {"name": "MD67 (antibody, V domains shown)", "VH": "B1 VH with Q6E, M113T", "VL": "not shown", "notes": "scFv-Fc format; also called MD67 scFv-Fc"}}, "note": "Numbering of substitutions follows the chain as printed."}
{"biological_target": "T1, SARS-CoV-2 spike S1 subunit (SARS-CoV-2, Wuhan-Hu-1 (QHD43416), UniProt P0DTC2)", "T1 construct": "also called S1 domain", "assay": "ELISA; direct ELISA; S1 as coating antigen (2 μg/ml), antibody diluted in series; apparent KD (Fig. 1d)", "conditions": "both partners purified", "units": {"Kd": "nM"}}
{"binder": "B1", "Kd": 12.7}
{"binder": "B2", "Kd": 15.6}
{"biological_target": "T1, SARS-CoV-2 spike S1 subunit", "assay": "ELISA; direct ELISA; plates coated with 2 μg/ml recombinant spike, S1, RBD or NTD; scFv-Fc detected with AP-conjugated anti-human IgG; specificity panel (Fig. 1c)", "conditions": "both partners purified"}
{"binder": "B3", "binding result": "binds"}
{"biological_target": "SARS-CoV-2 spike N-terminal domain (NTD) (SARS-CoV-2, Wuhan-Hu-1 (QHD43416), UniProt P0DTC2)", "assay": "ELISA; direct ELISA; plates coated with 2 μg/ml recombinant spike, S1, RBD or NTD; scFv-Fc detected with AP-conjugated anti-human IgG; specificity panel (Fig. 1c)", "conditions": "both partners purified"}
{"binder": "B3", "binding result": "no binding"}
{"binder": "B1", "binding result": "no binding"}
{"binder": "B2", "binding result": "no binding"}
{"binder": "B4", "binding result": "no binding"}
{"binder": "B5", "binding result": "no binding"}
{"binder": "B6", "binding result": "no binding"}
{"binder": "B7", "binding result": "no binding"}
